In patent US20050287527:

Key:
[1] = test system: GVDPRHL
[2] = test system: GPNPRHL
[3] = test system: GFSARHL
[4] = test system: GLDPRHL
[5] = test system: GFNPRHL

## human α-thrombin
[1]
  proteolytic cleavage of the peptide by thrombin: proteolytically cleaved after the arginine residues in the presence of the human thrombin
[2]
  proteolytic cleavage of the peptide by thrombin: proteolytically cleaved after the arginine residues in the presence of the human thrombin
[3]
  proteolytic cleavage of the peptide by thrombin: proteolytically cleaved after the arginine residues in the presence of the human thrombin
[4]
  proteolytic cleavage of the peptide by thrombin: proteolytically cleaved after the arginine residues in the presence of the human thrombin
[5]
  proteolytic cleavage of the peptide by thrombin: proteolytically cleaved after the arginine residues in the presence of the human thrombin
